Patent US20230192842A1 (published 2023)

Columns and labels:
Assay in all cases: cell-based or functional assay
[1] = molecular target: T1, human CLDN3 N38A mutant on RKO KO cells (human, UniProt O15551 1-220)
T1 construct: Single-point alanine mutant, monoclonal RKO KO line with GFP
T1 chain: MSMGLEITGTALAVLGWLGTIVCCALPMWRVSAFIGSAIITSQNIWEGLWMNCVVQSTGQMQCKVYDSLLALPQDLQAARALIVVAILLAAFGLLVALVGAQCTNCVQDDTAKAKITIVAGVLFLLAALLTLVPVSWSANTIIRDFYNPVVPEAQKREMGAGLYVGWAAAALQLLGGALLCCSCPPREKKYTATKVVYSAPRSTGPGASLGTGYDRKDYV

[2] = molecular target: human CLDN3 P152A mutant on RKO KO cells (human) (UniProt O15551)
[3] = molecular target: human CLDN3 P149A mutant on RKO KO cells (human) (UniProt O15551)
[4] = molecular target: mouse CLDN3 with C-terminal monomeric GFP tag on RKO-KO cells (mouse) (UniProt Q9Z0G9)
[5] = molecular target: human CLDN3 V150A mutant on RKO KO cells (human) (UniProt O15551)
[6] = molecular target: human CLDN3 with C-terminal monomeric GFP tag on RKO-KO cells (human) (UniProt O15551)
[7] = molecular target: human CLDN3 S42A mutant on RKO KO cells (human) (UniProt O15551)
[8] = molecular target: human CLDN3 Q155A mutant on RKO KO cells (human) (UniProt O15551)
[9] = molecular target: human CLDN3 Q43A mutant on RKO KO cells (human) (UniProt O15551)
[10] = molecular target: T2, human CLDN3 E153A mutant on RKO KO cells (human, UniProt O15551 1-220)
T2 construct: Single-point alanine mutant, monoclonal RKO KO line with GFP
T2 chain: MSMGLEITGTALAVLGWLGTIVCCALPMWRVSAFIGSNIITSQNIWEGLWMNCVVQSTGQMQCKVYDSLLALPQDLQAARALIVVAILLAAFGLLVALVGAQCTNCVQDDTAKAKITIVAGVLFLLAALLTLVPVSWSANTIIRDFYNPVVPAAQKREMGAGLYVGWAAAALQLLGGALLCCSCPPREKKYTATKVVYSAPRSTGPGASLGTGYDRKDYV

[11] = molecular target: human CLDN3 I45A mutant on RKO KO cells (human) (UniProt O15551)
[12] = molecular target: human CLDN3 K156A mutant on RKO KO cells (human) (UniProt O15551)
[13] = molecular target: human CLDN3 N148A mutant on RKO KO cells (human) (UniProt O15551)
[14] = molecular target: human CLDN9 with C-terminal monomeric GFP tag on RKO-KO cells (human) (UniProt O95484)
[15] = molecular target: human CLDN4 with C-terminal monomeric GFP tag on RKO-KO cells (human) (UniProt O14493)
[16] = molecular target: human CLDN3 I39A mutant on RKO KO cells (human) (UniProt O15551)
[17] = molecular target: human CLDN3 R157A mutant on RKO KO cells (human) (UniProt O15551)
[18] = molecular target: human CLDN3 F34A mutant on RKO KO cells (human) (UniProt O15551)
[19] = molecular target: T3, human CLDN6 with C-terminal monomeric GFP tag on RKO-KO cells (human) (UniProt P56747)
T3 sequence (looked up): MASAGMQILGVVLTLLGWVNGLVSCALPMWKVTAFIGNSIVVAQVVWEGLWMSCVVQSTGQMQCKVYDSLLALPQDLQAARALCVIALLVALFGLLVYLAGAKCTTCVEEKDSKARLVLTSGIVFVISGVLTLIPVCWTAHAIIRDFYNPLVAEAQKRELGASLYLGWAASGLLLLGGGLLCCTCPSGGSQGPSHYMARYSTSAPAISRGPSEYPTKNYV

Chain of mouse CLDN3 with C-terminal monomeric GFP tag on RKO-KO cells (mouse) (Q9Z0G9 whole entry): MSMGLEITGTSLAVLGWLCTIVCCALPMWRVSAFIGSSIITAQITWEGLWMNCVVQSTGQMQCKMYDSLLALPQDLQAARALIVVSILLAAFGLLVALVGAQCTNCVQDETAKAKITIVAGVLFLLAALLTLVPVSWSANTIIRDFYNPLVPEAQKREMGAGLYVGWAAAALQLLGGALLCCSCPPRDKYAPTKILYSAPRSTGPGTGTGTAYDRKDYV
Chain of human CLDN9 with C-terminal monomeric GFP tag on RKO-KO cells (human) (O95484 whole entry): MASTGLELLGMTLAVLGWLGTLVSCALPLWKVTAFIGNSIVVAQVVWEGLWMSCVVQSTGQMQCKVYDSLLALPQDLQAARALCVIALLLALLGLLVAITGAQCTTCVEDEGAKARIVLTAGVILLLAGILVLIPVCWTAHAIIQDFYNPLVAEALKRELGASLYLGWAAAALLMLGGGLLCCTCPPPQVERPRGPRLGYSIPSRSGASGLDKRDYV

- IFNγ as % of IFNγ in CLDN3 WT (24 h co-culture, normalised to untransduced T cells) [1]: 0.11%
- IFNγ as % of IFNγ in CLDN3 WT (24 h co-culture, normalised to untransduced T cells) [2]: 61.6%
- IFNγ as % of IFNγ in CLDN3 WT (24 h co-culture, normalised to untransduced T cells) [3]: 95.5%
- % Live Cells at Assay Endpoint (40 hrs, donor 92024) [4]: 89%
- % Live Cells at Assay Endpoint (70 hrs, donor D5) [4]: 97.7%
- % Live Cells at Assay Endpoint (90 hrs, donor 0372470) [4]: 94.5%
- % Live Cells at Assay Endpoint (96 hrs, donor C1700979) [4]: 71%
- % Live Cells at Assay Endpoint (96 hrs, donor C1700980) [4]: 86%
- % Live Cells at Assay Endpoint (120 hrs, donor 0372470) [4]: 81.7%
- IFNγ secretion fold change, anti-claudin-3 CAR-T cells vs anti-CD19 CAR-T cells [4]: 439 fold
- IFNγ secretion fold change, anti-claudin-3 CAR-T cells vs untransduced T cells [4]: 521 fold
- IFNγ as % of IFNγ in CLDN3 WT (24 h co-culture, normalised to untransduced T cells) [5]: 91.3%
- % Live Cells at Assay Endpoint (40 hrs, donor 92024) [6]: 16.3%
- % Live Cells at Assay Endpoint (70 hrs, donor D5) [6]: 0%
- % Live Cells at Assay Endpoint (90 hrs, donor 0372470; RKO KO hCLDN3 L14) [6]: -6%
- % Live Cells at Assay Endpoint (96 hrs, donor C1700979; RKO KO hCLDN3 L14) [6]: 29%
- % Live Cells at Assay Endpoint (96 hrs, donor C1700980; RKO KO hCLDN3 L14) [6]: 57.3%
- % Live Cells at Assay Endpoint (120 hrs, donor 0372470) [6]: 20.3%
- IFNγ secretion fold change, anti-claudin-3 CAR-T cells vs anti-CD19 CAR-T cells [6]: 2500 fold
- IFNγ secretion fold change, anti-claudin-3 CAR-T cells vs untransduced T cells [6]: 1350 fold
- IFNγ as % of IFNγ in CLDN3 WT (24 h co-culture, normalised to untransduced T cells) [7]: 95.2%
- IFNγ as % of IFNγ in CLDN3 WT (24 h co-culture, normalised to untransduced T cells) [8]: 86.3%
- IFNγ as % of IFNγ in CLDN3 WT (24 h co-culture, normalised to untransduced T cells) [9]: 72.8%
- IFNγ as % of IFNγ in CLDN3 WT (24 h co-culture, normalised to untransduced T cells) [10]: 3.56%
- IFNγ as % of IFNγ in CLDN3 WT (24 h co-culture, normalised to untransduced T cells) [11]: 66.1%
- IFNγ as % of IFNγ in CLDN3 WT (24 h co-culture, normalised to untransduced T cells) [12]: 101%
- IFNγ as % of IFNγ in CLDN3 WT (24 h co-culture, normalised to untransduced T cells) [13]: 104%
- % Live Cells at Assay Endpoint (40 hrs, donor 92024) [14]: 96.7%
- % Live Cells at Assay Endpoint (70 hrs, donor D5) [14]: 96.3%
- % Live Cells at Assay Endpoint (96 hrs, donor C1700979) [14]: 92.7%
- % Live Cells at Assay Endpoint (96 hrs, donor C1700980) [14]: 101%
- IFNγ secretion fold change, anti-claudin-3 CAR-T cells vs anti-CD19 CAR-T cells [14]: 14.3 fold
- IFNγ secretion fold change, anti-claudin-3 CAR-T cells vs untransduced T cells [14]: 11.3 fold
- % Live Cells at Assay Endpoint (90 hrs, donor 0372470) [15]: 94.7%
- % Live Cells at Assay Endpoint (120 hrs, donor 0372470) [15]: 90.7%
- IFNγ secretion fold change, anti-claudin-3 CAR-T cells vs anti-CD19 CAR-T cells [15]: 25.1 fold
- IFNγ secretion fold change, anti-claudin-3 CAR-T cells vs untransduced T cells [15]: 29.2 fold
- IFNγ as % of IFNγ in CLDN3 WT (24 h co-culture, normalised to untransduced T cells) [16]: 71.5%
- IFNγ as % of IFNγ in CLDN3 WT (24 h co-culture, normalised to untransduced T cells) [17]: 107%
- IFNγ as % of IFNγ in CLDN3 WT (24 h co-culture, normalised to untransduced T cells) [18]: 79.7%
- % Live Cells at Assay Endpoint (40 hrs, donor 92024) [19]: 96.3%
- % Live Cells at Assay Endpoint (96 hrs, donor C1700979) [19]: 96%
- % Live Cells at Assay Endpoint (96 hrs, donor C1700980) [19]: 100%
- IFNγ secretion fold change, anti-claudin-3 CAR-T cells vs anti-CD19 CAR-T cells [19]: 10.9 fold
- IFNγ secretion fold change, anti-claudin-3 CAR-T cells vs untransduced T cells [19]: 2.59 fold
B1: 906-009_LNGFR anti-claudin-3 chimeric antigen receptor (scFv orientation L-H, short hCD8 spacer), on T cells (protein, part only; not given: linker, spacer and signaling domains, not shown: large carriers)
chain, part: DIQMTQSPSSLSASVGDRVTITCKASQDINRYIAWYQQKPGKAPKLLIHYTSTLQPGVPSRFSGSGSGTDFTLTISSLQPEDFATYYCLQYETLYSFGQGTKLEIKQVQLVQSGAEVKKPGSSVKVSCKASGYTFTNYWVHWVRQAPGQGLEWMGRIEPNSSGSQYNEKFKNRVTITADKSTSTAYMELSSLRSEDTAVYYCARGVMVPLDYWGQGTLVTVSS
